Common to all, as to assay: cell_activity
Data set [1] concerns BsCas12a (Butyrivibrio sp.?). Conditions: PAM TTTV.
Data set [2] concerns CMaCas12a. Conditions: PAM TTTV; rice protoplasts.
Data set [3] concerns MAD7. The settings on record: PAM TTTV.
In data set [4] the test system is TsCas12a (Thiomicrospira sp.?). Conditions: PAM TTTV; stable transgenic rice.
The subject of data set [5] is BoCas12a. The settings on record: PAM TTTV; rice protoplasts.
The test system of data set [6] is Lb5Cas12a. Conditions: PAM TTTV; rice protoplasts.
The subject of data set [7] is Mb2Cas12a.
Data set [8] concerns MbCas12a. Conditions: PAM TTTV; rice protoplasts.
For data set [9], the system named is MlCas12a. Conditions: PAM TTTV; rice protoplasts.

As to “AAGAAGGGUUAUGGCCAAUGCUU / TCCATTTGTTTGAAGAAGGGTTATGGCCAATGCTTGCCC / GGGCAAGCATTGGCCATAACCCTTCTTCAAACAAATGGA [crRNA OsEPFL9 spacer 23 nt ; OsEPFL9-TTTV target]”, the activity was above 80 % editing in data set [1] (stable transgenic rice), 5.1 % editing in data set [2], above 80 % editing in [3] (stable transgenic rice) and above 80 % editing in data set [4].

For the sequence “CAGAAAGAGAAGGAGGCACAGAU / CTTTTCCAGAAAGAGAAGGAGGCACAGATCTTGCCGT / ACGGCAAGATCTGTGCCTCCTTCTCTTTCTGGAAAAG [crRNA OsDEP1-TTTV spacer (inferred) ; OsDEP1-TTTV target]”, the activity in data set [5] came out at 7.8 % editing; in data set [1] (rice protoplasts), 20.1 % editing; in data set [2], 2.7 % editing; in data set [6], 28.8 % editing; in data set [3] (rice protoplasts), 34.1 % editing; in data set [7] (PAM TTTV, rice protoplasts), 19.7 % editing. For the same sequence, the activity in data set [8] came to 7.2 % editing; in [9] it was 13.9 % editing.

On to “CUCAAGGUGAGCGCCCCGCGGCG / GTTCCTCAAGGTGAGCGCCCCGCGGCGGCGGCGGCTG / CAGCCGCCGCCGCCGCGGGGCGCTCACCTTGAGGAAC [crRNA OsDEP1-TTV spacer (inferred) ; OsDEP1-TTV target]”, for which the activity in data set [7] (PAM TTV, 22 C) stood at 6.4 % indels.

“CUGGGCUCGGCGUCCUCGACGUC / GAGTTGCTGGGCTCGGCGTCCTCGACGTCGTCCTCGCCG / CGGCGAGGACGACGTCGAGGACGCCGAGCCCAGCAACTC [crRNA OsR005-TTV spacer (inferred) ; OsR005-TTV target]” showed an activity in [7] (PAM TTV, 22 C) of 8.3 % indels.

Values taken from patent US20210130838.
